Biological target: AHNAK1, Q09666
Assay: holdup assay
Set-up: key: below the threshold = too weak to quantify, mostly under pKd 3.1 to 4
Settings: plain residues with an end cap or a label only (N-terminal biotin on a linker: ado-ado)

AHNAK1, Q09666, sequence (Q09666 4-100): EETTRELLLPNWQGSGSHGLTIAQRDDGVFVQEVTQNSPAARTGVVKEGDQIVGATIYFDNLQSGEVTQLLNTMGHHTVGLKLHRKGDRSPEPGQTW

pKd | Binder
below the threshold | TETASVCTKV [SLC23A1, Q9UHI7]

Biological target: T1, APBA1_1, Q02410
T1 sequence (Q02410 651-752, limits assumed, looked up): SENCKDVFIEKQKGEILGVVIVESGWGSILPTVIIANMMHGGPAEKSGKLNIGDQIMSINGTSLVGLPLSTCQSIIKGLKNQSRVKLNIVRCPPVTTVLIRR
Assay: holdup assay
Set-up: key: below the threshold = too weak to quantify, mostly under pKd 3.1 to 4
Settings: plain residues with an end cap or a label only (N-terminal biotin on a linker: ado-ado)

pKd | Binder
below the threshold | TETASVCTKV [SLC23A1, Q9UHI7]

Biological target: T2, APBA2_1, Q99767
T2 sequence (Q99767 563-664, limits assumed, looked up): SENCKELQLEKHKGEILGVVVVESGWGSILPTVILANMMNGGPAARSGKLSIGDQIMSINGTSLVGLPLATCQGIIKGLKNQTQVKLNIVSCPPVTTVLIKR
Assay: holdup assay
Set-up: key: below the threshold = too weak to quantify, mostly under pKd 3.1 to 4
Settings: plain residues with an end cap or a label only (N-terminal biotin on a linker: ado-ado)

pKd | Binder
below the threshold | TETASVCTKV [SLC23A1, Q9UHI7]

Biological target: T3, ARHGAP21, Q5T5U3
T3 sequence (Q5T5U3 45-169, limits assumed, looked up): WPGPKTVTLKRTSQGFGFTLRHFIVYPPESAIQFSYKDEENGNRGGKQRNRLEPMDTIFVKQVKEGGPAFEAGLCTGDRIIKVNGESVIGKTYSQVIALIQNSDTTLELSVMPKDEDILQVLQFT
Assay: holdup assay
Set-up: key: below the threshold = too weak to quantify, mostly under pKd 3.1 to 4
Settings: plain residues with an end cap or a label only (N-terminal biotin on a linker: ado-ado)

pKd | Binder
3.94 | TETASVCTKV [SLC23A1, Q9UHI7]

Biological target: DLG1_3, Q12959
Sequence (Q12959 457-571): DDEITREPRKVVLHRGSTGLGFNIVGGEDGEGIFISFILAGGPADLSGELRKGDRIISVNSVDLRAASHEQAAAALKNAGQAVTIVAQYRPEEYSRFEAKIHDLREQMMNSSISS
Assay: holdup assay
Set-up: key: below the threshold = too weak to quantify, mostly under pKd 3.1 to 4
Settings: plain residues with an end cap or a label only (N-terminal biotin on a linker: ado-ado)

pKd | Binder
below the threshold | TETASVCTKV [SLC23A1, Q9UHI7]

Biological target: DLG5_1, Q8TDM6
Sequence (Q8TDM6 617-713): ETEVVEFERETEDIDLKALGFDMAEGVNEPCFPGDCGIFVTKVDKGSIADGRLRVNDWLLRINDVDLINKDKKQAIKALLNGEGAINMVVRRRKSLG
Assay: holdup assay
Set-up: key: below the threshold = too weak to quantify, mostly under pKd 3.1 to 4
Settings: plain residues with an end cap or a label only (N-terminal biotin on a linker: ado-ado)

pKd | Binder
below the threshold | TETASVCTKV [SLC23A1, Q9UHI7]

Biological target: FRMPD2_2, Q68DX3
Sequence (Q68DX3 944-1038): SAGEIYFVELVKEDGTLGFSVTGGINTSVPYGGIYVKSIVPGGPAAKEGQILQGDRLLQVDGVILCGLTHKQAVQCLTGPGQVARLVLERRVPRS
Assay: holdup assay
Set-up: key: below the threshold = too weak to quantify, mostly under pKd 3.1 to 4
Settings: plain residues with an end cap or a label only (N-terminal biotin on a linker: ado-ado)

pKd | Binder
3.93 | TETASVCTKV [SLC23A1, Q9UHI7]

Biological target: GOPC, Q9HD26
Assay: holdup assay
Set-up: key: below the threshold = too weak to quantify, mostly under pKd 3.1 to 4
Settings: plain residues with an end cap or a label only (N-terminal biotin on a linker: ado-ado)

pKd | Binder
4.17 | TETASVCTKV [SLC23A1, Q9UHI7]

Biological target: GRASP, Q7Z6J2
Sequence (Q7Z6J2 96-193): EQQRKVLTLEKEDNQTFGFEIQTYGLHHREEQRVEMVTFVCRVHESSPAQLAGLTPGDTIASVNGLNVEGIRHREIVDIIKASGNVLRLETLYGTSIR
Assay: holdup assay
Set-up: key: below the threshold = too weak to quantify, mostly under pKd 3.1 to 4
Settings: plain residues with an end cap or a label only (N-terminal biotin on a linker: ado-ado)

pKd | Binder
4.43 | TETASVCTKV [SLC23A1, Q9UHI7]

Biological target: GRID2IP_1, A4D2P6
Sequence (A4D2P6 1-87): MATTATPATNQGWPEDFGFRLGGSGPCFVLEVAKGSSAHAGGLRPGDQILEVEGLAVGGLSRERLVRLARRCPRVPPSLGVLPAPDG
Assay: holdup assay
Set-up: key: below the threshold = too weak to quantify, mostly under pKd 3.1 to 4
Settings: plain residues with an end cap or a label only (N-terminal biotin on a linker: ado-ado)

pKd | Binder
3.97 | TETASVCTKV [SLC23A1, Q9UHI7]

Biological target: IL16_1, Q14005
Sequence (Q14005 210-306): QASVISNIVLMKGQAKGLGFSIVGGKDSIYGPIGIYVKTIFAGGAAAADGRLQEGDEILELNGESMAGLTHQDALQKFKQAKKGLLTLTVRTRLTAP
Assay: holdup assay
Set-up: key: below the threshold = too weak to quantify, mostly under pKd 3.1 to 4
Settings: plain residues with an end cap or a label only (N-terminal biotin on a linker: ado-ado)

pKd | Binder
below the threshold | TETASVCTKV [SLC23A1, Q9UHI7]

Biological target: Inadl_9, Q8NI35
Sequence (Q8NI35 1530-1615): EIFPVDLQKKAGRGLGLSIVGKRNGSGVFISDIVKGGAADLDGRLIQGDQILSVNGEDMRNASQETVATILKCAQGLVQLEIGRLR
Assay: holdup assay
Set-up: key: below the threshold = too weak to quantify, mostly under pKd 3.1 to 4
Settings: plain residues with an end cap or a label only (N-terminal biotin on a linker: ado-ado)

pKd | Binder
below the threshold | TETASVCTKV [SLC23A1, Q9UHI7]

Biological target: LAP2, Q96RT1
Sequence (Q96RT1 other isoform, or with tags, fused parts or gaps): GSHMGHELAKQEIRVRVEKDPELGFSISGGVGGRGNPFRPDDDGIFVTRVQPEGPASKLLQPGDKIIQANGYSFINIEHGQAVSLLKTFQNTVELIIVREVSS
Assay: holdup assay
Set-up: key: below the threshold = too weak to quantify, mostly under pKd 3.1 to 4
Settings: plain residues with an end cap or a label only (N-terminal biotin on a linker: ado-ado)

pKd | Binder
3.74 | TETASVCTKV [SLC23A1, Q9UHI7]

Biological target: LNX1_1, Q8TBB1
Sequence (Q8TBB1 261-371): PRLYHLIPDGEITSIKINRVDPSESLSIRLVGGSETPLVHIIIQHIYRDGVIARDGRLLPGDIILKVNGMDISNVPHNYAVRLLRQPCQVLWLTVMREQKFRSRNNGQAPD
Assay: holdup assay
Set-up: key: below the threshold = too weak to quantify, mostly under pKd 3.1 to 4
Settings: plain residues with an end cap or a label only (N-terminal biotin on a linker: ado-ado)

pKd | Binder
3.73 | TETASVCTKV [SLC23A1, Q9UHI7]

Biological target: MAGI2_4, Q86UL8
Sequence (Q86UL8 772-865): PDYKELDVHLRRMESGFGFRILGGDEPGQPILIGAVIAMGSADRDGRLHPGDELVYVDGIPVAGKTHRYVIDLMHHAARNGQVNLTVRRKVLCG
Assay: holdup assay
Set-up: key: below the threshold = too weak to quantify, mostly under pKd 3.1 to 4
Settings: plain residues with an end cap or a label only (N-terminal biotin on a linker: ado-ado)

pKd | Binder
3.58 | TETASVCTKV [SLC23A1, Q9UHI7]

Biological target: MAGI3_2, Q5TCQ9
Sequence (Q5TCQ9 398-503): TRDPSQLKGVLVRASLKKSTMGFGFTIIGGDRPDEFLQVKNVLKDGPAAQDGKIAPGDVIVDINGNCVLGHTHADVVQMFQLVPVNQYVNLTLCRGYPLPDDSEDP
Assay: holdup assay
Set-up: key: below the threshold = too weak to quantify, mostly under pKd 3.1 to 4
Settings: plain residues with an end cap or a label only (N-terminal biotin on a linker: ado-ado)

pKd | Binder
4.18 | TETASVCTKV [SLC23A1, Q9UHI7]

Biological target: T4, MPDZ_10, O75970
T4 sequence (O75970 1624-1722, limits assumed, looked up): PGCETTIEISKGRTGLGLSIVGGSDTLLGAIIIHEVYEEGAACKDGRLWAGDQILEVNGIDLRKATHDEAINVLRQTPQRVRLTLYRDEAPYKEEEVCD
Assay: holdup assay
Set-up: key: below the threshold = too weak to quantify, mostly under pKd 3.1 to 4
Settings: plain residues with an end cap or a label only (N-terminal biotin on a linker: ado-ado)

pKd | Binder
3.73 | TETASVCTKV [SLC23A1, Q9UHI7]

Biological target: T5, MPDZ_12, O75970
T5 sequence (O75970 1857-1958, limits assumed, looked up): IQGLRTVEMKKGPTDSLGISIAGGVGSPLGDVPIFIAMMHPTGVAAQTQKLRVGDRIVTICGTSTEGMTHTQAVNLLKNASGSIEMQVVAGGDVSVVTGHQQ
Assay: holdup assay
Set-up: key: below the threshold = too weak to quantify, mostly under pKd 3.1 to 4
Settings: plain residues with an end cap or a label only (N-terminal biotin on a linker: ado-ado)

pKd | Binder
3.82 | TETASVCTKV [SLC23A1, Q9UHI7]

Biological target: T6, MPDZ_5, O75970
T6 sequence (O75970 695-796, limits assumed, looked up): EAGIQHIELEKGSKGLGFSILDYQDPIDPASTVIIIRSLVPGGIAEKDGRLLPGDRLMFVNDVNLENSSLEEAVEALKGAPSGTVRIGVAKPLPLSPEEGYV
Assay: holdup assay
Set-up: key: below the threshold = too weak to quantify, mostly under pKd 3.1 to 4
Settings: plain residues with an end cap or a label only (N-terminal biotin on a linker: ado-ado)

pKd | Binder
below the threshold | TETASVCTKV [SLC23A1, Q9UHI7]

Biological target: NHERF4_1, Q86UT5-2
Sequence (Q86UT5 other isoform, or with tags, fused parts or gaps): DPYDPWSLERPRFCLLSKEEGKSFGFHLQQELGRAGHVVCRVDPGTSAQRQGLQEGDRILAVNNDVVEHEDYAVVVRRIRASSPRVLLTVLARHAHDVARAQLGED
Assay: holdup assay
Set-up: key: below the threshold = too weak to quantify, mostly under pKd 3.1 to 4
Settings: plain residues with an end cap or a label only (N-terminal biotin on a linker: ado-ado)

pKd | Binder
4.53 | TETASVCTKV [SLC23A1, Q9UHI7]

Biological target: NHERF4_2, Q86UT5
Sequence (Q86UT5 220-308): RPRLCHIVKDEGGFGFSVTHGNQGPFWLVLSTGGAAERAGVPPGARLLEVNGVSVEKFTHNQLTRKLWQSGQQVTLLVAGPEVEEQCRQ
Assay: holdup assay
Set-up: key: below the threshold = too weak to quantify, mostly under pKd 3.1 to 4
Settings: plain residues with an end cap or a label only (N-terminal biotin on a linker: ado-ado)

pKd | Binder
below the threshold | TETASVCTKV [SLC23A1, Q9UHI7]

Biological target: T7, PARD3B_1, Q8TEW8
T7 sequence (Q8TEW8 196-299, limits assumed, looked up): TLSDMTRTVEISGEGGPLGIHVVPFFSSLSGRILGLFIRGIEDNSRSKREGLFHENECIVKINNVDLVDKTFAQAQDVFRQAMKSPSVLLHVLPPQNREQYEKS
Assay: holdup assay
Set-up: key: below the threshold = too weak to quantify, mostly under pKd 3.1 to 4
Settings: plain residues with an end cap or a label only (N-terminal biotin on a linker: ado-ado)

pKd | Binder
3.61 | TETASVCTKV [SLC23A1, Q9UHI7]

Biological target: T8, RADIL, Q96JH8
T8 sequence (Q96JH8 971-1071, limits assumed, looked up): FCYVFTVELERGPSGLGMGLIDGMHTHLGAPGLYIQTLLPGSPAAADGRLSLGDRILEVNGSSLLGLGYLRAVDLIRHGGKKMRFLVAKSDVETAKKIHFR
Assay: holdup assay
Set-up: key: below the threshold = too weak to quantify, mostly under pKd 3.1 to 4
Settings: plain residues with an end cap or a label only (N-terminal biotin on a linker: ado-ado)

pKd | Binder
3.96 | TETASVCTKV [SLC23A1, Q9UHI7]

Biological target: T9, RAPGEF6, Q8TEU7
T9 sequence (Q8TEU7 525-625, limits assumed, looked up): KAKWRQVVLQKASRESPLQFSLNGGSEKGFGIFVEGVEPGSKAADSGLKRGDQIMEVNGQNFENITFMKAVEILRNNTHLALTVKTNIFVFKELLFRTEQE
Assay: holdup assay
Set-up: key: below the threshold = too weak to quantify, mostly under pKd 3.1 to 4
Settings: plain residues with an end cap or a label only (N-terminal biotin on a linker: ado-ado)

pKd | Binder
below the threshold | TETASVCTKV [SLC23A1, Q9UHI7]

Biological target: SCRIB_1, Q14160
Sequence (Q14160 718-814): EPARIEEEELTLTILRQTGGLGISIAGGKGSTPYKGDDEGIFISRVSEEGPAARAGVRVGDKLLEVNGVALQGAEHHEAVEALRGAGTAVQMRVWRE
Assay: holdup assay
Set-up: key: below the threshold = too weak to quantify, mostly under pKd 3.1 to 4
Settings: plain residues with an end cap or a label only (N-terminal biotin on a linker: ado-ado)

pKd | Binder
3.99 | TETASVCTKV [SLC23A1, Q9UHI7]

Biological target: T10, SHANK1, Q9Y566
T10 sequence (Q9Y566 658-767, limits assumed, looked up): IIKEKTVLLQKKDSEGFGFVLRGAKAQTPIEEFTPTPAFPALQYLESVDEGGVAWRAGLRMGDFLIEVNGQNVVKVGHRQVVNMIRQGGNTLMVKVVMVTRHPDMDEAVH
Assay: holdup assay
Set-up: key: below the threshold = too weak to quantify, mostly under pKd 3.1 to 4
Settings: plain residues with an end cap or a label only (N-terminal biotin on a linker: ado-ado)

pKd | Binder
4.42 | TETASVCTKV [SLC23A1, Q9UHI7]
